A short description of series [1]: Release of vancomycin from hydrogel. Conditions: VAN encapsulated in hydrogel only. It counts as physicochemical. The text has this:
A third example is a DDS where only hydrogel is used to release vancomycin (VAN, antibiotics, 1450 Da). VAN was encapsulated in the hydrogel as a short-term release DDS (e.g., for use as a prophylactic treatment before ocular surgery).

A short description of series [2]: Bioactivity of vancomycin released from hydrogel. Conditions: throughout release from hydrogel.
The nature of series [3]: Animal modeling of vancomycin hydrogel DDS (subconjunctival injection). Format: in vivo.
Series [4] concerns bovine retina. The conditions noted are these: directly after exposure to 0.1 mg/mL; cited from earlier work.
A short description of series [5]: In vitro single and dual release of DEX nanoparticles and AFL microspheres from hydrogel DDS (Example 3). It counts as physicochemical. The conditions noted are these: first 14 days.
Protocol: The DDS for single release consisted of 20 mg of DEX nanoparticles (DEX-np) suspended within a biodegradable N-isopropylacrylamide/poly(ethylene glycol)-co-(L-lactic acid) diacrylate/(NIPAAm/PEG-PLLA-DA) thermoresponsive hydrogel. The dual release consisted of 20 mg of DEX-np and 20 mg of AFL microspheres (AFL-ms) suspended within the hydrogel. DEX release in vitro, with and without AFL-ms, was quantified using NanoDrop™ OneC. Iodine-125 radiolabeled AFL was used to measure encapsulation efficiency into the hydrogel and in vitro release. The initial burst was calculated by quantifying total drug release in the first 24 hours.
The nature of series [6]: In vitro release of anti-VEGF from microspheres and microsphere-hydrogel DDS (PBS, 37 C). Conditions: for Initial Burst Percent: drug released within first 24 hours; for extension of release by hydrogel: microspheres in hydrogel versus alone; for reduction of initial burst by hydrogel: microspheres in hydrogel versus microspheres alone; for steady release rate: Days 7-196; for duration of release: microspheres suspended in hydrogel. Format: physicochemical. The protocol: (§1) Labeled proteins were lyophilized, weighed, and dissolved in 1× phosphate-buffered saline (PBS, pH 7.4) to create stock solutions of 10 mg/mL for each protein, which were stored at −80° C.
Release of anti-VEGF agents was determined using a separation method also described in Osswald C. R. et al. Briefly, 15 mg of microspheres and 1 mL of the DDS (15 mg microspheres in 1 mL hydrogel) were suspended in 1.5 mL of 1×PBS to ensure detectable levels of anti-VEGF concentration throughout release. Release profiles were conducted at 37° C. under mild agitation and at predetermined intervals, 1 mL of supernatant was removed after a brief centrifugation and replaced with an equal volume of fresh buffer. Supernatants were read using a gamma counter (Packard). Cumulative release was calculated as a percent of encapsulated drug and was considered complete when the microspheres had completely degraded based on visual inspection. The IB was defined as drug released within the first 24 hours.

Series [7] concerns retina. The arrangement: species or system Long-Evans rats. The conditions noted are these: rat, in vivo. The method, then: (§2) All animal procedures were in accordance with protocols approved by the Institutional Animal Care and Use Committee at the Illinois Institute of Technology, and with the principles embodied in the statement on the use of animals in ophthalmic and vision research adopted by the Association for Research in Vision and Ophthalmology. Long-Evans male rats (1-3 months, 300-350 g) were purchased from Harlan Laboratories (Indianapolis, IN, USA). Animals were anesthetized using 80 mg/kg of ketamine hydrochloride (Fort Dodge Animal Health, Fort Dodge, Iowa, USA) and 10 mg/kg xylazine (AnaSed® Injection, Akorn, Inc., Decatur, IL, USA) via intraperitoneal (IP) injection. Proparacaine drops (Bausch and Lomb, Rochester, NY, USA) were used to anesthetize the corneas throughout the procedure and pupils were dilated using phenylephrine (Bausch and Lomb) and atropine drops (Bausch and Lomb). Heart rate and blood oxygen saturation were monitored with a PulseOximeter (8500AV; Nonin Medical Inc., Plymouth, MN, USA). Animals were placed on a custom-built heated stage and monitored to maintain a core body temperature of 37° C.
Animals were separated into six groups to determine the ability of the DDS of this invention to treat CNV. For analysis purposes, lesions were considered independent within each treatment group and each group contained two rats for a total of four eyes and up to 24 lesions per treatment group. […] All IVT injections were 5 μL and performed immediately after CNV induction.
The corneal electroretinogram (ERG) is a non-invasive measurement that represents the overall electrical activity of the retina in response to a stimulus flash. It is routinely used to assess retinal cellular activity and in toxicology studies. Each component of the ERG can be used to assess different retinal cell types and any alterations in the function of the retina due to the DDS would appear as changes in amplitude or sensitivity of various ERG components. Under scotopic conditions, the ERG has two important components: the a-wave and b-wave. The rising edge of the negative a-wave is generated by the photoreceptors in the outer retina; the positive b-wave is generated primarily by the bipolar cells and/or Müller cells. Another component of the ERG is the c-wave, which originates in the RPE and can be used to assess the functional integrity of the photoreceptors, the RPE cells, and the interactions between them; however, for the purposes of this research, the c-wave was not recorded or analyzed.
Under dim red light prior to and at each time point after CNV induction and DDS injection, ERG experiments were performed under scotopic conditions, with animals dark-adapted overnight prior to the experiment. Electroretinograms, in response to the full-field Ganzfeld stimulation, were recorded by a gold wire loop placed on the cornea. The reference and ground electrodes were 30 G platinum subdermal needle electrodes ([…]™ F-E2, Grass Products, Natus Neurology, Warwick, RI, USA) inserted into the cheek and nape of the neck, respectively. A-wave and b-wave intensity responses were recorded by presenting single flashes of increasing intensity (5×10^−4 to 305.7 sc cd·s·m^−2) and allowing the eye to dark adapt for 1 min after each flash. The intensity-response values for the a-wave and b-wave were fit with the Naka-Rushton equation, to determine a half-saturation intensity of the responses and maximal response.
The parameter values obtained from the Naka-Rushton analyses and IOP measurements were compared using the paired t-test verses control. […] Unless otherwise noted, significance represents p<0.05. All values are reported as sample mean±standard error of the mean.

Series [8] deals with laser-induced CNV. As to the kind of experiment: Laser-induced CNV rat model, lesion area from late-phase FA images (multi-Otsu thresholding). The conditions noted are these: 5 μL IVT immediately after CNV induction, Weeks 1-12. Format: in vivo, Long-Evans rats. The method, then:
as §2, with “Proparacaine drops (Bausch and Lomb, Rochester, NY, USA) were used to anesthetize the corneas throughout the procedure and pupils were dilated using phenylephrine (Bausch and Lomb) and atropine drops (Bausch and Lomb).” left out, “C. […]” for “C.”
A confocal scanning laser ophthalmoscope (cSLO) system (Heidelberg Retina Angiograph (HRA), Heidelberg Engineering, Heidelberg, Germany) was used to image the retina. FA still images were captured at 1-2 min, 10 min and 20 min after IP injection of 0.5 mL of 20% fluorescein dye (Sigma Aldrich, St. Louis, MO, USA) and were used for quantification of CNV lesion areas. […]
CNV lesion areas were quantified using late-phase FA images. […]

A short description of series [9]: Encapsulation efficiency of iodine-125 labelled anti-VEGF by gamma counter. Format: physicochemical. The protocol: as §1
For each anti-VEGF agent, encapsulation efficiency (EE) was determined from the radioactivity measured using a gamma counter (Cobra-II Auto-Gamma, Packard Instrument Co., Meriden, CT) before and after microsphere preparation. EE was defined as the percent-drug within the microspheres relative to the theoretical loading amount.

The nature of series [10]: Microsphere diameter by light microscopy and ImageJ. The conditions noted are these: drug-loaded microspheres, Alone. It counts as physicochemical. The text has this: To measure microsphere diameter, microspheres were fabricated as described above with non-radiolabeled drug. A sample was suspended in ddH2O and imaged with a microscope (×20 objective, Carl Zeiss, Germany).

Series [11] has as its system retina. Conditions: vitreal concentration 6.67-10 mg/mL, 24 hr or 7 days after treatment; cited from earlier work.
Series [12] has as its system corneal neovascularization. Conditions: cited from earlier work.
Series [13] concerns inflammation-induced angiogenesis in the cornea. Conditions: systemic or topical application; cited from earlier work.
Series [14] concerns CNV. Conditions: intravitreal, out to 28 days, doses above and below clinical dose; cited from earlier work.
Series [15] relates to mouse VEGF-A. Conditions: cited from earlier work.
Chain of mouse VEGF-A (Q00731 205-317 limits assumed): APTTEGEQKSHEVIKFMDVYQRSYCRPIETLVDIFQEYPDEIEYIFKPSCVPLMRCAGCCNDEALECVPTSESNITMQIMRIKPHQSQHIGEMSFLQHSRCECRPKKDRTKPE
The conditions of series [16]: in vivo; cited from earlier work.
The conditions of series [17]: cited from earlier work.

Several values for one entry are separate records, joined by “and”; a condition that tells them apart may be missing. Identical values can stand only once.

As to `CN[C@H](CC(C)C)C(=O)N[C@H]1C(=O)N[C@@H](CC(N)=O)C(=O)N[C@H]2C(=O)N[C@H]3C(=O)N[C@H](C(=O)N[C@H](C(=O)O)c4cc(O)cc(O)c4-c4cc3ccc4O)[C@H](O)c3ccc(c(Cl)c3)Oc3cc2cc(c3O[C@@H]2O[C@H](CO)[C@@H](O)[C@H](O)[C@H]2O[C@H]2C[C@](C)(N)[C@H](O)[C@H](C)O2)Oc2ccc(cc2Cl)[C@H]1O` [VAN, vancomycin], the “duration of controlled release” value in series [1] is reported as “over 20 days”. The bioactivity result in [2] is reported as “bioactivity was maintained throughout the release”. For the same molecule, in series [3], the treatment efficacy result is “showed treatment efficacy”.
On to aflibercept, for which the “decrease in maximal scotopic b-wave response” value in series [4] is given as 43.1%. In addition, the “release rates in the presence of DEX-np” value in series [5] is “increased release rates”. The “rate of release from the DDS, times less than that of ranibizumab” value in series [6] (microsphere-hydrogel DDS) is 2.3 ×. In addition, the “Initial Burst Percent” value in series [6] (microspheres Alone) is given as 83.3 ± 2.1%. In addition, in series [6], the “extension of release by hydrogel” value was 27.2%; the “reduction of initial burst by hydrogel” value is listed as 76%; the duration of release was 196 days and ~200 days. For the same molecule, in series [6] (microspheres in hydrogel), the steady release rate came to 0.065 µg/day and the “Initial Burst Percent” value is 20.1 ± 0.8%. For the same molecule, the “encapsulated drug remaining entrapped in hydrogel after complete degradation of microspheres” value in [6] (non-degradable hydrogel, end of release) came to 32.7±1.1%. Further, in [7], the “a-wave half-saturation intensity versus control” value is given as “No significant difference”; the “half-maximal a- or b-wave response (half-saturation intensity)” value is on record as “No significant difference”; the “maximal a-wave response post-treatment, lower than control” value is roughly 40%; the “maximal a-wave response, Control versus Week 1-Week 12” value was “significant difference”. Besides, the “CNV lesion area compared to non-treated animals” value in series [8] was “significantly smaller CNV lesions compared to non-treated animals at Week 4 and Week 12”. Besides, in series [9] (microspheres Alone), the “Encapsulation Efficiency Percent” value was 44.8 ± 2.0%. Also, the “Encapsulation Efficiency Percent” value in series [9] (microspheres in hydrogel) is listed as 44.6 ± 1.4%. The molecule also returned a Diameter in series [10] of 8.0 ± 0.3 μm. Moreover, the ERG parameters entry in series [11] is given as “did not alter any ERG parameters”.
In the case of bevacizumab, the corneal angiogenesis entry in [12] (sub-conjunctival injection) is “can significantly inhibit corneal angiogenesis”. Also, the corneal neovascularization result in series [12] (topical) is “limited corneal neovascularization”. For the same molecule, the “inhibition of corneal angiogenesis” value in [13] is “significantly inhibited inflammation-induced angiogenesis”. The “therapeutic effect on CNV” value in series [14] is given as “no therapeutic effect was observed”. The “binding to mouse VEGF-A” value in series [15] is “binds to mouse VEGF-A”.
As for ranibizumab, the “Initial Burst Percent” value in series [6] (microspheres Alone) is reported as 50.3 ± 2.1%. In addition, in series [6], the “extension of release by hydrogel” value is reported as 27.2%; the “reduction of initial burst by hydrogel” value was 58%; the duration of release is 196 days and ~200 days. Also, in series [6] (microspheres in hydrogel), the steady release rate stood at 0.153 µg/day and the “Initial Burst Percent” value is 21.0 ± 2.0%. Besides, in series [7], the “a-wave parameters (maximal response, half-saturation intensity) versus control” value was “no significant differences” and the “b-wave parameters versus control” value is reported as “no significant differences”. Further, the “CNV lesion area compared to non-treated animals” value in series [8] is “only had a significant decrease in lesion area at Week 12”. In [16], the “half-life t½” value is 220 h. The “Encapsulation Efficiency Percent” value in [9] (microspheres Alone) is listed as 91.3 ± 2.5%. In addition, the Diameter in series [10] is recorded as 7.5 ± 0.4 μm. The “therapeutic effect on CNV” value in [14] is listed as “no therapeutic effect was observed”.

B1: ovalbumin (protein, UniProt P01012 2-386, looked up)
Ovalbumin: GSIGAASMEFCFDVFKELKVHHANENIFYCPIAIMSALAMVYLGAKDSTRTQINKVVRFDKLPGFGDSIEAQCGTSVNVHSSLRDILNQITKPNDVYSFSLASRLYAEERYPILPEYLQCVKELYRGGLEPINFQTAADQARELINSWVESQTNGIIRNVLQPSSVDSQTAMVLVNAIVFKGLWEKAFKDEDTQAMPFRVTEQESKPVQMMYQIGLFRVASMASEKMKILELPFASGTMSMLVLLPDEVSGLEQLESIINFEKLTEWTSSNVMEERKIKVYLPRMKMEEKYNLTSVLMAMGITDVFSSSANLSGISSAESLKISQAVHAAHAEINEAGREVVGSAEAGVDAASVSEEFRADHPFLFCIKHIATNAVLFFGRCVSP
notes: model protein (45 kDa) used in initial development of the DDS
Turning to B1, the “duration of controlled and extended release” value in series [17] (microsphere-hydrogel DDS) is listed as “approximately 200 days”. Besides, the “extension of release compared to microspheres alone” value in series [17] (microspheres within hydrogel) is roughly 30%. For the same molecule, the “residual entrapment in hydrogel” value in series [17] (prior study) is recorded as 8.01±0.76%.

The record behind these values is patent US12599570B2, “Biodegradable extended release microsphere-hydrogel ocular drug delivery system and method” (priority 2015, dated 2026).
